# Test results taken from paper PMC2187830 (The Journal of Experimental Medicine, 1990).
# T1: murine IL-7 receptor (mouse (endogenous in IxN/2b), UniProt P16872 21-459)
# T1 sequence: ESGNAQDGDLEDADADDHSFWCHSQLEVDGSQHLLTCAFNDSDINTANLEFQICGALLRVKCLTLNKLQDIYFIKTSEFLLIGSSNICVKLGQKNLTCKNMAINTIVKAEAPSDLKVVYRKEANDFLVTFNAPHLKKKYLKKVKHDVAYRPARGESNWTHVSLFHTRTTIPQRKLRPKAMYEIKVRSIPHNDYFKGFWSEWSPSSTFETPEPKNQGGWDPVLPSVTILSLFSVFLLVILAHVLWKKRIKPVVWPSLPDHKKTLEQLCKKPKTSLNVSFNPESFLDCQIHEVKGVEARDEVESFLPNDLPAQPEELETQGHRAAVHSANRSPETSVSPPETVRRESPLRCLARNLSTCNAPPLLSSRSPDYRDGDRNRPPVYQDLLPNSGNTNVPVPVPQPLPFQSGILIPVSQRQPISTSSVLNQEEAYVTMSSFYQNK
# Assays:
# [1] = biological target: T1, murine IL-7 receptor; assay: radioligand binding
# [2] = biological target: T1, murine IL-7 receptor; assay: radioligand binding; remark: listed apart in the source
binder,measurement,setting,value
"125I-labeled recombinant murine IL-7 (ligand, 125I on the single tyrosine residue (amino acid 12), nearly quantitatively radiolabeled) ECHIKDKEGKAYESVLMISIDELDKMTGTDSNCPNNEPNFFRKHVCDDTKEAAFLNRAARKLKQFLKMNISEEFNVHLLTVSQGTQTLVNCTSKEEKNVKEQKKNDACFLKRLLREIKTCWNKILKGSI","apparent Ka, high affinity component",[1],1.2e+10 M⁻¹
same,"apparent Ka, low affinity component",[2],4.8e+08 M⁻¹
